Source: paper PMC3776838, “Detection of Phospho-Sites Generated by Protein Kinase CK2 in CFTR: Mechanistic Aspects of Thr1471 Phosphorylation” (PLoS ONE, 2013)

Biological target: Human CK2 α2β2-holoenzyme (human) (UniProt P68400)
Sequence (P68400 whole entry, chain 1 of 2): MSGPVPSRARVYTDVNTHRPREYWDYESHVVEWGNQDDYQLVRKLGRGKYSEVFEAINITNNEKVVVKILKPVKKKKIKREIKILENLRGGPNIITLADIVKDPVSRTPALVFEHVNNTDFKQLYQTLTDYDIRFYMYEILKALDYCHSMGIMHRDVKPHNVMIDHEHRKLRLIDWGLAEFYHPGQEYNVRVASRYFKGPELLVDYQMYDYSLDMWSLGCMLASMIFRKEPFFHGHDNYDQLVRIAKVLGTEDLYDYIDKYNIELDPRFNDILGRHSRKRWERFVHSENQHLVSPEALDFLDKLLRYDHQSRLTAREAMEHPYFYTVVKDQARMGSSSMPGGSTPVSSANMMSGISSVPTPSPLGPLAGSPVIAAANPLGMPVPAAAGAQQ
Sequence (P67870 whole entry, chain 2 of 2, further chain): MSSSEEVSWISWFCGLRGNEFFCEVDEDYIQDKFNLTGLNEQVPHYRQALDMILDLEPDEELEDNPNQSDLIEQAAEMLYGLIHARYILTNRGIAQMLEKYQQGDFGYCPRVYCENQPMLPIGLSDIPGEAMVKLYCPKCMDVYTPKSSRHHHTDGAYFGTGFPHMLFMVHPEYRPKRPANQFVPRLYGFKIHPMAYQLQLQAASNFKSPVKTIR

Chain of 42-mer peptide reproducing the C-terminal tail of human CFTR (residues 1439–1480) (P13569 1439-1480): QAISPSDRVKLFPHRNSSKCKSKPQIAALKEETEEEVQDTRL

42-mer peptide reproducing the C-terminal tail of human CFTR (residues 1439–1480) (from UniProt P13569 1439-1480) (domain or fragment)
Km of phosphorylation of the 42-mer by CK2 holoenzyme (33P incorporation, Figure 3): 1.4 µM
